{
  "source": "the RNAGym collection of RNA variant scans (doi:10.7554/elife.90254)",
  "parents": {"B1": {"name": "LINE1-mini (parent)", "chain": "GGCAGAGCUCAACACAGCGUGGCAAAGUGGCUGUGGCUAGACUGCC"}},
  "data": [
    {"variants_of": "B1", "assay": "self-cleavage, relative activity (ratio to wild type); higher = more cleavage; in vitro, sequencing; the parent is a self-cleaving ribozyme", "values": [
      {"variant": "A14C G21A", "self-cleavage": 0.17},
      {"variant": "A14C G21C", "self-cleavage": 0.05},
      {"variant": "A14C G21U", "self-cleavage": 0.07},
      {"variant": "A14C G40U", "self-cleavage": 0.07},
      {"variant": "A14C G40C", "self-cleavage": 0.04},
      {"variant": "A14C G40A", "self-cleavage": 0.09},
      {"variant": "C13U U38C", "self-cleavage": 0.1},
      {"variant": "C13U U38A", "self-cleavage": 0.04},
      {"variant": "C13U U38G", "self-cleavage": 0.02},
      {"variant": "A14C G27C", "self-cleavage": 0.07},
      {"variant": "A14C G27A", "self-cleavage": 0.09},
      {"variant": "A14C G27U", "self-cleavage": 0.09},
      {"variant": "A14C A39U", "self-cleavage": 0.07},
      {"variant": "A14C A39G", "self-cleavage": 0.04},
      {"variant": "A14C A39C", "self-cleavage": 0.04},
      {"variant": "A14C A24U", "self-cleavage": 0.07},
      {"variant": "A14C A24C", "self-cleavage": 0.11},
      {"variant": "A14C A24G", "self-cleavage": 0.07},
      {"variant": "A14C A25G", "self-cleavage": 0.07},
      {"variant": "A14C A25U", "self-cleavage": 0.09},
      {"variant": "A14C A25C", "self-cleavage": 0.07},
      {"variant": "C13U C31U", "self-cleavage": 0.12},
      {"variant": "C13U C31G", "self-cleavage": 0.08},
      {"variant": "C13U C31A", "self-cleavage": 0.05},
      {"variant": "C13U C45A", "self-cleavage": 0.05},
      {"variant": "C13U C45G", "self-cleavage": 0.06},
      {"variant": "C13U C45U", "self-cleavage": 0.13},
      {"variant": "C13U G30A", "self-cleavage": 0.15},
      {"variant": "C13U G30C", "self-cleavage": 0.09},
      {"variant": "C13U G30U", "self-cleavage": 0.15},
      {"variant": "A14C G17C", "self-cleavage": 0.04},
      {"variant": "A14C G17A", "self-cleavage": 0.08},
      {"variant": "A14C G17U", "self-cleavage": 0.28},
      {"variant": "A14C A16U", "self-cleavage": 0.12},
      {"variant": "A14C A16G", "self-cleavage": 0.1},
      {"variant": "A14C A16C", "self-cleavage": 0.08},
      {"variant": "A14C C15A", "self-cleavage": 0.08},
      {"variant": "A14C C15G", "self-cleavage": 0.02},
      {"variant": "A14C C15U", "self-cleavage": 0.07},
      {"variant": "A14C A41U", "self-cleavage": 0.06},
      {"variant": "A14C A41C", "self-cleavage": 0.04},
      {"variant": "A14C A41G", "self-cleavage": 0.05},
      {"variant": "C13U G29U", "self-cleavage": 0.21},
      {"variant": "C13U G29A", "self-cleavage": 0.28},
      {"variant": "C13U G29C", "self-cleavage": 0.09},
      {"variant": "A14C U32C", "self-cleavage": 0.08},
      {"variant": "A14C U32G", "self-cleavage": 0.07},
      {"variant": "A14C U32A", "self-cleavage": 0.07},
      {"variant": "C13U G40A", "self-cleavage": 0.1},
      {"variant": "C13U G40C", "self-cleavage": 0.08},
      {"variant": "C13U G40U", "self-cleavage": 0.09},
      {"variant": "C13U G33U", "self-cleavage": 0.06},
      {"variant": "C13U G33C", "self-cleavage": 0.06},
      {"variant": "C13U G33A", "self-cleavage": 0.07},
      {"variant": "A14C C46A", "self-cleavage": 0.13},
      {"variant": "A14C C46U", "self-cleavage": 0.18},
      {"variant": "A14C C46G", "self-cleavage": 0.08},
      {"variant": "C13U U32C", "self-cleavage": 0.08},
      {"variant": "C13U U32A", "self-cleavage": 0.11},
      {"variant": "C13U U32G", "self-cleavage": 0.21},
      {"variant": "C13U C23G", "self-cleavage": 0.06},
      {"variant": "C13U C23A", "self-cleavage": 0.26},
      {"variant": "C13U C23U", "self-cleavage": 0.22},
      {"variant": "C13U U20A", "self-cleavage": 0.17},
      {"variant": "C13U U20G", "self-cleavage": 0.1},
      {"variant": "C13U U20C", "self-cleavage": 0.09},
      {"variant": "C13U C42G", "self-cleavage": 0.08},
      {"variant": "C13U C42A", "self-cleavage": 0.09},
      {"variant": "C13U C42U", "self-cleavage": 0.09},
      {"variant": "C13U C37A", "self-cleavage": 0.27},
      {"variant": "C13U C37U", "self-cleavage": 0.11},
      {"variant": "C13U C37G", "self-cleavage": 0.1},
      {"variant": "C13U U43A", "self-cleavage": 0.1},
      {"variant": "C13U U43C", "self-cleavage": 0.1},
      {"variant": "C13U U43G", "self-cleavage": 2.25},
      {"variant": "A14C G35C", "self-cleavage": 0.04},
      {"variant": "A14C G35U", "self-cleavage": 0.07},
      {"variant": "A14C G35A", "self-cleavage": 0.09},
      {"variant": "A14C C23A", "self-cleavage": 0.21},
      {"variant": "A14C C23G", "self-cleavage": 0.11},
      {"variant": "A14C C23U", "self-cleavage": 0.12},
      {"variant": "A14C U34A", "self-cleavage": 0.07},
      {"variant": "A14C G44A", "self-cleavage": 0.07},
      {"variant": "A14C G44C", "self-cleavage": 0.13},
      {"variant": "A14C G44U", "self-cleavage": 0.07},
      {"variant": "A14C C31G", "self-cleavage": 0.03},
      {"variant": "A14C C31U", "self-cleavage": 0.02},
      {"variant": "A14C C31A", "self-cleavage": 0.07},
      {"variant": "A14C G36C", "self-cleavage": 0.02},
      {"variant": "A14C G36A", "self-cleavage": 0.15},
      {"variant": "A14C G36U", "self-cleavage": 0.09},
      {"variant": "C13U U34C", "self-cleavage": 0.14},
      {"variant": "C13U U34G", "self-cleavage": 0.05},
      {"variant": "C13U U34A", "self-cleavage": 0.09},
      {"variant": "C13U G27A", "self-cleavage": 0.17},
      {"variant": "C13U G27C", "self-cleavage": 0.06},
      {"variant": "C13U G27U", "self-cleavage": 0.17},
      {"variant": "A14C", "self-cleavage": 0.12},
      {"variant": "A14C C42A", "self-cleavage": 0.07},
      {"variant": "A14C C42G", "self-cleavage": 0.07},
      {"variant": "A14C C42U", "self-cleavage": 0.07},
      {"variant": "A14C G22U", "self-cleavage": 0.06},
      {"variant": "A14C G22C", "self-cleavage": 0.1},
      {"variant": "A14C G22A", "self-cleavage": 0.18},
      {"variant": "A14C U20G", "self-cleavage": 0.1},
      {"variant": "A14C U20C", "self-cleavage": 0.08},
      {"variant": "A14C U20A", "self-cleavage": 0.08},
      {"variant": "A14C C45A", "self-cleavage": 0.08},
      {"variant": "A14C C45U", "self-cleavage": 0.08},
      {"variant": "A14C C45G", "self-cleavage": 0.11},
      {"variant": "C13U C46A", "self-cleavage": 0.22},
      {"variant": "C13U C46G", "self-cleavage": 0.09},
      {"variant": "C13U C46U", "self-cleavage": 0.3},
      {"variant": "C13U G44C", "self-cleavage": 0.06},
      {"variant": "C13U G44U", "self-cleavage": 0.1},
      {"variant": "C13U G44A", "self-cleavage": 0.1},
      {"variant": "A14C A26C", "self-cleavage": 0.16},
      {"variant": "A14C A26G", "self-cleavage": 0.06},
      {"variant": "A14C A26U", "self-cleavage": 0.09},
      {"variant": "A14C G19U", "self-cleavage": 0.1},
      {"variant": "A14C G19C", "self-cleavage": 0.03},
      {"variant": "A14C G19A", "self-cleavage": 0.1},
      {"variant": "A14C G33U", "self-cleavage": 0.05},
      {"variant": "A14C G33C", "self-cleavage": 0.03},
      {"variant": "A14C G33A", "self-cleavage": 0.06},
      {"variant": "A14C G29A", "self-cleavage": 0.29},
      {"variant": "A14C G29C", "self-cleavage": 0.04},
      {"variant": "A14C G29U", "self-cleavage": 0.13},
      {"variant": "C13U C15A", "self-cleavage": 0.08},
      {"variant": "C13U C15G", "self-cleavage": 0.08},
      {"variant": "C13U C15U", "self-cleavage": 0.13},
      {"variant": "A14C U28A", "self-cleavage": 0.03},
      {"variant": "A14C U28C", "self-cleavage": 0.07},
      {"variant": "A14C U28G", "self-cleavage": 0.07},
      {"variant": "A14C G30A", "self-cleavage": 0.21},
      {"variant": "A14C G30C", "self-cleavage": 0.07},
      {"variant": "A14C G30U", "self-cleavage": 0.07},
      {"variant": "C13U G22A", "self-cleavage": 0.13},
      {"variant": "C13U G22U", "self-cleavage": 0.32},
      {"variant": "C13U G22C", "self-cleavage": 0.1},
      {"variant": "A14C C18A", "self-cleavage": 0.05},
      {"variant": "A14C C18U", "self-cleavage": 0.07},
      {"variant": "A14C C18G", "self-cleavage": 0.05},
      {"variant": "C13U U28G", "self-cleavage": 0.08},
      {"variant": "C13U U28A", "self-cleavage": 0.49},
      {"variant": "C13U U28C", "self-cleavage": 0.28},
      {"variant": "C13U G21A", "self-cleavage": 0.22},
      {"variant": "C13U G21C", "self-cleavage": 0.25},
      {"variant": "C13U G21U", "self-cleavage": 0.18},
      {"variant": "C13U G36A", "self-cleavage": 0.63},
      {"variant": "C13U G36C", "self-cleavage": 0.11},
      {"variant": "C13U G36U", "self-cleavage": 0.15},
      {"variant": "C13U G19U", "self-cleavage": 0.23},
      {"variant": "C13U G19C", "self-cleavage": 0.07},
      {"variant": "C13U G19A", "self-cleavage": 0.16},
      {"variant": "C13U G35C", "self-cleavage": 0.22},
      {"variant": "C13U G35U", "self-cleavage": 0.18},
      {"variant": "C13U G35A", "self-cleavage": 0.71},
      {"variant": "C13U G17C", "self-cleavage": 0.11},
      {"variant": "C13U G17U", "self-cleavage": 0.12},
      {"variant": "C13U G17A", "self-cleavage": 0.1},
      {"variant": "A14C C37U", "self-cleavage": 0.02},
      {"variant": "A14C C37A", "self-cleavage": 0.08},
      {"variant": "A14C C37G", "self-cleavage": 0.11},
      {"variant": "C13U C18A", "self-cleavage": 0.07},
      {"variant": "C13U C18G", "self-cleavage": 0.05},
      {"variant": "C13U C18U", "self-cleavage": 0.12}
    ]}
  ]
}
